Reference: patent US20120053125A1

Assays:
[1] = target: Protein Phosphatase-1 (PP1), purified catalytic subunit (New England BioLabs) (UniProt P62139); assay: cell-based or functional assay
[2] = target: endogenous type-1 protein phosphatase (PP1) of adult rat cardiomyocyte lysates (rat); assay: cell-based or functional assay

Protein Phosphatase-1 (PP1), purified catalytic subunit (New England BioLabs), sequence (P62139 whole entry): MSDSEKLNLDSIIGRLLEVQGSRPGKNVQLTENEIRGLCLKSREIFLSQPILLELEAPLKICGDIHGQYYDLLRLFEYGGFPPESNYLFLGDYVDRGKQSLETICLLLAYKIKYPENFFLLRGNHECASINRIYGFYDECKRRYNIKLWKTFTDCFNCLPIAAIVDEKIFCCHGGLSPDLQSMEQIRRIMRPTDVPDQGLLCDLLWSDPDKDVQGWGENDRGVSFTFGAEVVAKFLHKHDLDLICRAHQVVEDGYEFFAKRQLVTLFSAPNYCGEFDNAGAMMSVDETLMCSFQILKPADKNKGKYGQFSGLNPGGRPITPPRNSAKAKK

| IC50 of inhibition of PP1 activity (dephosphorylation of 32P-MyBP) [1] [nM] | PP1 activity remaining after PKA stimulation in infected rat cardiomyocytes [2] [fold] | increase of purified PP1c activity compared to I-1 wild-type [1] [%] | Binder | further results |
| --- | --- | --- | --- | --- |
| 3.2 | – | – | PKA-phosphorylated human I-1 wild type (protein, phosphothreonine at Thr-35 (phosphorylated in vitro by PKA)) MEQDNSPRKIQFTVPLLEPHLDPEAAEQIRRRRPTPATLVLTSDQSSPEIDEDRIPNPHLKSTLAMSPRQRKKMTRITPTMKELQMMVEHHLGQQQQGEEPEGAAESTGTQESRPPGIPDTEVESRLGTSGTAKKTAECIPKTHERGSKEPSTKEPSTHIPPLDSKGANSV | – |
| – | 2 | – | human I-1 (S67D) (protein) MEQDNSPRKIQFTVPLLEPHLDPEAAEQIRRRRPTPATLVLTSDQSSPEIDEDRIPNPHLKSTLAMDPRQRKKMTRITPTMKELQMMVEHHLGQQQQGEEPEGAAESTGTQESRPPGIPDTEVESRLGTSGTAKKTAECIPKTHERGSKEPSTKEPSTHIPPLDSKGANSV | – |
| – | – | 25 | human I-1 (S67A) phosphorylated by PKC-α (protein, phosphothreonine at Thr-75 (phosphorylated in vitro by PKC-α; 0.35 mol Pi/mol protein)) MEQDNSPRKIQFTVPLLEPHLDPEAAEQIRRRRPTPATLVLTSDQSSPEIDEDRIPNPHLKSTLAMAPRQRKKMTRITPTMKELQMMVEHHLGQQQQGEEPEGAAESTGTQESRPPGIPDTEVESRLGTSGTAKKTAECIPKTHERGSKEPSTKEPSTHIPPLDSKGANSV | – |
| – | 2 | – | human I-1 (S67D/T75D) (protein) MEQDNSPRKIQFTVPLLEPHLDPEAAEQIRRRRPTPATLVLTSDQSSPEIDEDRIPNPHLKSTLAMDPRQRKKMDRITPTMKELQMMVEHHLGQQQQGEEPEGAAESTGTQESRPPGIPDTEVESRLGTSGTAKKTAECIPKTHERGSKEPSTKEPSTHIPPLDSKGANSV | – |
| – | 2 | 23 | human I-1 (T75D) (protein) MEQDNSPRKIQFTVPLLEPHLDPEAAEQIRRRRPTPATLVLTSDQSSPEIDEDRIPNPHLKSTLAMSPRQRKKMDRITPTMKELQMMVEHHLGQQQQGEEPEGAAESTGTQESRPPGIPDTEVESRLGTSGTAKKTAECIPKTHERGSKEPSTKEPSTHIPPLDSKGANSV | increase in type-1 phosphatase activity in infected rat cardiomyocyte lysates compared to Ad.I-1WT and Ad.GFP [2]: 27% |
| 4.9 | – | – | human I-1 wild type phosphorylated first by PKC-α and then by PKA (protein, phosphothreonine at Thr-35 (PKA); phosphoserine at Ser-67 and phosphothreonine at Thr-75 (PKC-α)) MEQDNSPRKIQFTVPLLEPHLDPEAAEQIRRRRPTPATLVLTSDQSSPEIDEDRIPNPHLKSTLAMSPRQRKKMTRITPTMKELQMMVEHHLGQQQQGEEPEGAAESTGTQESRPPGIPDTEVESRLGTSGTAKKTAECIPKTHERGSKEPSTKEPSTHIPPLDSKGANSV | – |
